Legend:
cJUN phosphorylation = experiment: JNK Kinase Assay (WT and mutant kinases immunoprecipitated from HMEL cells); type: biochemical, human; details: as reported by level of cJUN phosphorylation; for MAP2K4/7 first incubated with inactive JNK2
[1] = system: HMEL-BRAF^V600E melanocytes; experiment: In vivo functional genetic screen and secondary validation: kinase-transduced HMEL cells implanted in nude mice; design: species or system human; details: for Tumorigenicity in vivo: WT or mutant kinase expressed individually
Excerpt: A ‘cancer-kinase’ library was constructed containing sequence-verified ORFs in a lentiviral vector for 110 of the 120 kinases reported to sustain somatic driver mutations in diverse human cancers. This library was pooled and introduced into a human HMEL-BRAF^V600E melanocyte model system engineered with BRAF^V600E and TERT as well as p53DD and CDK4-R24C to inactivate the […] pathways, respectively. The HMEL-BRAF^V600E melanocyte profile, while representing the most common clinically-definable genetic profile in human melanoma, is insufficient to drive efficient melanoma formation following orthotopic transplantation in the skin (penetrance of 10% and latency of 26 weeks). In contrast, 40% of HMEL-BRAF^V600E melanocytes transduced with the cancer kinase pools developed tumors with an average latency of 13 weeks (range 10-18 weeks).
In vivo functional genetic screens: Lentivirus were prepared by co-transfecting 293T cells with individual vector backbones and standard virus packaging systems for subsequent collection of viral supernatants. Viral supernatants were then pooled randomly to generate 8 pools of high-titer lentiviral stocks. HMEL cells were transduced with either GFP control lentivirus or each representative lentiviral pool in the presence of 8 ug/ml polybrene (Company). Infected cells were expanded, mixed 1:1 with Matrigel (BD Bioscience) and then subcutaneously implanted in female nude animals (Taconic) at 1×10^6 cells per site on both flanks. Primary INK4A/ARF−/−, PTEN−/− murine astrocytes were transduced with either GFP control lentivirus or each representative lentiviral pool in the presence of 8 ug/ml polybrene (Company). Infected cells were expanded implanted into the brain parenchyma of female SCID mice (Charles River). Briefly, SCID mice were anesthetized and placed into a stereotactic apparatus equipped with a Z axis (Stoelting). A small hole was bored in the skull 0.5 mm anterior and 3.0 mm lateral to the bregma using a dental drill. Twenty thousand cells in Hank's Buffered Salt Solution were injected into the right caudate nucleus 2 mm below the surface of the brain using a 10-ul Hamilton syringe with an unbeveled 30 gauge needle. The scalp was closed using a 9-mm Autoclip Applier. Animals were followed daily for the development of subQ tumors or signs of neurological deficits. Animals were sacrifice, tumors were harvested, genomic DNA was prepared and kinases expressed in each tumor identified using PCR sequencing using plasmid specific CMV and V5 primers. Expression of each kinase was further validated by western blot analysis. Kinases expressed in each tumor were then enlisted into secondary validation screens in which stable HMEL or mouse astrocyte lines were generated expressing each kinase individually. Cells were again expanded and then implanted in female nude or SCID animals. All mice were housed and treated in accordance with protocols approved by the institutional care and use committees for animal research at the Dana-Farber Cancer Institute.

B1: JNK1 P.G171S: JNK1 somatic mutant, observed in renal clear cell carcinoma (protein, UniProt P45983 1-427, looked up, variant G171S)
Mitogen-activated protein …: MSRSKRDNNFYSVEIGDSTFTVLKRYQNLKPIGSGAQGIVCAAYDAILERNVAIKKLSRPFQNQTHAKRAYRELVLMKCVNHKNIIGLLNVFTPQKSLEEFQDVYIVMELMDANLCQVIQMELDHERMSYLLYQMLCGIKHLHSAGIIHRDLKPSNIVVKSDCTLKILDFSLARTAGTSFMMTPYVVTRYYRAPEVILGMGYKENVDLWSVGCIMGEMVCHKILFPGRDYIDQWNKVIEQLGTPCPEFMKKLQPTVRTYVENRPKYAGYSFEKLFPDVLFPADSEHNKLKASQARDLLSKMLVIDASKRISVDEALQHPYINVWYDPSEAEAPPPKIPDKQLDEREHTIEEWKELIYKEVMDLEERTKNGVIRGQPSPLGAAVINGSQHPSSSSSVNDVSSMSTDPTLASDTDSSLEAAAGPLGCCR
- Kinase Activity (cJUN phosphorylation): 1X
- Tumorigenicity in vivo [1]: YES

B2: MAP2K4 p.Q142L: MAP2K4 somatic driver mutant, observed in colorectal adenocarcinoma (protein, UniProt P45985 2-399, looked up, variant Q142L)
Dual specificity …: AAPSPSGGGGSGGGSGSGTPGPVGSPAPGHPAVSSMQGKRKALKLNFANPPFKSTARFTLNPNPTGVQNPHIERLRTHSIESSGKLKISPEQHWDFTAEDLKDLGEIGRGAYGSVNKMVHKPSGQIMAVKRIRSTVDEKELKQLLMDLDVVMRSSDCPYIVQFYGALFREGDCWICMELMSTSFDKFYKYVYSVLDDVIPEEILGKITLATVKALNHLKENLKIIHRDIKPSNILLDRSGNIKLCDFGISGQLVDSIAKTRDAGCRPYMAPERIDPSASRQGYDVRSDVWSLGITLYELATGRFPYPKWNSVFDQLTQVVKGDPPQLSNSEEREFSPSFINFVNLCLTKDESKRPKYKELLKHPFILMYEERAVEVACYVCKILDQMPATPSSPMYVD
- Kinase Activity (cJUN phosphorylation): 4X
- Tumorigenicity in vivo [1]: YES

B3: MAP2K4 p.R154W: MAP2K4 somatic driver mutant, observed in colorectal adenocarcinoma (protein, UniProt P45985 2-399, looked up, variant R154W)
Dual specificity …: AAPSPSGGGGSGGGSGSGTPGPVGSPAPGHPAVSSMQGKRKALKLNFANPPFKSTARFTLNPNPTGVQNPHIERLRTHSIESSGKLKISPEQHWDFTAEDLKDLGEIGRGAYGSVNKMVHKPSGQIMAVKRIRSTVDEKEQKQLLMDLDVVMWSSDCPYIVQFYGALFREGDCWICMELMSTSFDKFYKYVYSVLDDVIPEEILGKITLATVKALNHLKENLKIIHRDIKPSNILLDRSGNIKLCDFGISGQLVDSIAKTRDAGCRPYMAPERIDPSASRQGYDVRSDVWSLGITLYELATGRFPYPKWNSVFDQLTQVVKGDPPQLSNSEEREFSPSFINFVNLCLTKDESKRPKYKELLKHPFILMYEERAVEVACYVCKILDQMPATPSSPMYVD
- Kinase Activity (cJUN phosphorylation): 3X
- Tumorigenicity in vivo [1]: YES

B4: MAP2K7 WT: wild type MAP2K7 kinase ORF expressed in HMEL cells (protein, UniProt O14733 2-419, looked up)
Dual specificity …: AASSLEQKLSRLEAKLKQENREARRRIDLNLDISPQRPRPTLQLPLANDGGSRSPSSESSPQHPTPPARPRHMLGLPSTLFTPRSMESIEIDQKLQEIMKQTGYLTIGGQRYQAEINDLENLGEMGSGTCGQVWKMRFRKTGHVIAVKQMRRSGNKEENKRILMDLDVVLKSHDCPYIVQCFGTFITNTDVFIAMELMGTCAEKLKKRMQGPIPERILGKMTVAIVKALYYLKEKHGVIHRDVKPSNILLDERGQIKLCDFGISGRLVDSKAKTRSAGCAAYMAPERIDPPDPTKPDYDIRADVWSLGISLVELATGQFPYKNCKTDFEVLTKVLQEEPPLLPGHMGFSGDFQSFVKDCLTKDHRKRPKYNKLLEHSFIKRYETLEVDVASWFKDVMAKTESPRTSGVLSQPHLPFFR
- Kinase Activity (cJUN phosphorylation): 1X
- tumor generation individually in secondary HMEL screens ([1]; kinase transduced individually): did not generate tumors

— US20130040853A1, “Context Specific Genetic Screen Platform to Aid in Gene Discovery and Target Validation” (Dana-Farber Cancer Institute Inc., priority 2010, published 2013)
